Reference: article PMC9668914, “Understanding VPAC receptor family peptide binding and selectivity” (Nature Communications, 2022)

Biological target: PACAP type 1 receptor (PAC1R), PAC1null splice variant, FLAG and His tagged (UniProt P41586)
Sequence (P41586 21-468, change not shown): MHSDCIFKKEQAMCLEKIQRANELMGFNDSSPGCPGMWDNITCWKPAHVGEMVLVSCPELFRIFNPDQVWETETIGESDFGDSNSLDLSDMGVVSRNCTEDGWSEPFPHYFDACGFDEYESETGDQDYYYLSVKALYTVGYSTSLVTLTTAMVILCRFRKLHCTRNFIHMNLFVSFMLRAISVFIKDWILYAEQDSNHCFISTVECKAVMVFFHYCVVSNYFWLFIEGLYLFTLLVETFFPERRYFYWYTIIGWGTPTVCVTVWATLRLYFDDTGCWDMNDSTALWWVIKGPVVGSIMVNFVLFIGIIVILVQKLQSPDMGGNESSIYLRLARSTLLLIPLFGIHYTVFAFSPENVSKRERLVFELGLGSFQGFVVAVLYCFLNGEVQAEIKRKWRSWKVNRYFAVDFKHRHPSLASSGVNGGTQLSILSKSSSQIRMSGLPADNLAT

Ala4 PACAP27 (peptide)
cAMP potency in COS-7 cells transfected with PAC1R, fold change relative to PACAP27: 5 fold

Gly4 VIP (peptide)
cAMP potency in COS-7 cells transfected with PAC1R, fold change relative to VIP: 3 fold
